# B1: CODA339: engineered receptor: L131D in SEQ ID NO: 33 (protein)
# chain: MRCSPGGVWLALAASLLHVSLQGEFQRKLYKELVKNYNPLERPVANDSQPLTVYFSLSLLQIMDVDEKNQVLTTNIWLQMSWTDHYLQWNVSEYPGVKTVRFPDGQIWKPDILLYNSADERFDATFHTNVDVNSSGHCQYLPPGIFKSSCPMDLKNFPMDVQTCKLKFGSWSYGGWSLDLQMQEADISGYIPNGEWDLVGIPGKRSERFYECCKEPYPDVTFTVTMRRRMGYYLIQMYIPSLLIVILSWISFWINMDAAPARVGLGITTVLTMTTQSSGSRASLPKVSYVKAIDIWMAVCLLFVFSALLEYAAVNFVSRQHKELLRFRRKRRHHKSPMLNLFQEDEAGEGRFNFSAYGMGPACLQAKDGISVKGANNSNTTNPPPAPSKSPEEMRKLFIQRAKKIDKISRIGFPMAFLIFNMFYWIIYKIVRREDVHNQ
# modifications: synthetic sequence of chimeric LGIC
# Tested on: engineered chimeric receptor SEQ ID NO: 33 and its mutants (human α7-nAChR ligand binding domain / human GlyRα1 ion pore domain) in Lenti-X 293T cells
# Test: YFP fluorescence quenching anion reporter plate reader assay (percent quench, EC50)
# Type: cell-based
# Details: for YFP fluorescence quenching using CNL001 (percent quench): receptor named in row; for YFP fluorescence quenching using Varenicline, 3 nM var: ligand Varenicline 3 nM; for YFP fluorescence quenching using Varenicline, 30 nM var: ligand Varenicline 30 nM; for YFP fluorescence quenching using Varenicline, 300 nM var: ligand Varenicline 300 nM; for YFP fluorescence quenching using Varenicline, 500 nM var: ligand Varenicline 500 nM; for YFP fluorescence quenching using Varenicline, 1 uM var: ligand Varenicline 1 uM
# Outline: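 Lenti-X 293T cells co-expressing an anion-quenchable YFP were transiently transfected with receptor DNA, then ligand was added in NaI-substituted buffer (pH 7.2) after 30 min at 37 °C. Fluorescence was read about 2 min; percent quench = mean of last 10 s over 15 s pre-ligand baseline.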
molecule,measurement,setting,value
B1,YFP fluorescence quenching using CNL001 (percent quench),"1 nM CNL001, first column so headed",73.711%
same,YFP fluorescence quenching using CNL001 (percent quench),"1 nM CNL001, second column so headed",76.44%
same,YFP fluorescence quenching using TC-5619/Bradanicline (percent quench),1 nM brd (TC-5619/Bradanicline),4.12%
same,YFP fluorescence quenching using TC-5619/Bradanicline (percent quench),3 nM brd (TC-5619/Bradanicline),19.15%
same,YFP fluorescence quenching using CNL001 (percent quench),"10 nM CNL001, first column so headed",77.049%
same,YFP fluorescence quenching using CNL001 (percent quench),"10 nM CNL001, second column so headed",77.76%
same,YFP fluorescence quenching using TC-5619/Bradanicline (percent quench),10 nM brd (TC-5619/Bradanicline),68.98%
same,YFP fluorescence quenching using TC-6683 (percent quench),30 nM TC-6683,−18.32%
same,YFP fluorescence quenching using TC-5619/Bradanicline (percent quench),30 nM brd (TC-5619/Bradanicline),77.29%
same,YFP fluorescence quenching using CNL001 (percent quench),"50 nM CNL001, first column so headed",77.882%
same,YFP fluorescence quenching using CNL001 (percent quench),"50 nM CNL001, second column so headed",78.708%
same,YFP fluorescence quenching using ABT-126 (percent quench),50 nM abt (ABT-126),−16.65%
same,YFP fluorescence quenching using CNL001 (percent quench),"100 nM CNL001, first column so headed",79.567%
same,YFP fluorescence quenching using CNL001 (percent quench),"100 nM CNL001, second column so headed",79.273%
same,YFP fluorescence quenching (percent quench),100 nM CNL002,12.83%
same,YFP fluorescence quenching using ABT-126 (percent quench),100 nM abt (ABT-126),−12.3%
same,YFP fluorescence quenching using AZD-0328 (percent quench),100 nM azd0328,62.87%
same,YFP fluorescence quenching using TC-5619/Bradanicline (percent quench),100 nM brd (TC-5619/Bradanicline),81.41%
same,YFP fluorescence quenching using TC-6683 (percent quench),300 nM TC-6683,−17.25%
same,YFP fluorescence quenching using ABT-126 (percent quench),300 nM abt (ABT-126),18.5%
same,YFP fluorescence quenching using AZD-0328 (percent quench),300 nM azd0328,77.03%
same,YFP fluorescence quenching using TC-5619/Bradanicline (percent quench),300 nM brd (TC-5619/Bradanicline),75.79%
same,YFP fluorescence quenching using CNL001 (percent quench),"1 uM CNL001, first column so headed",79.992%
same,YFP fluorescence quenching using CNL001 (percent quench),"1 uM CNL001, second column so headed",79.927%
same,YFP fluorescence quenching (percent quench),1 uM CNL002,77.73%
same,YFP fluorescence quenching using ABT-126 (percent quench),1 uM abt (ABT-126),59.09%
same,YFP fluorescence quenching using TC-5619/Bradanicline (percent quench),1 uM brd (TC-5619/Bradanicline),82.26%
same,YFP fluorescence quenching using TC-6683 (percent quench),3 uM TC-6683,−10%
same,YFP fluorescence quenching (percent quench),10 uM ach (acetylcholine),4.56%
same,YFP fluorescence quenching (percent quench),30 uM CNL002,80.58%
same,YFP fluorescence quenching using TC-6683 (percent quench),30 uM TC-6683,−8.51%
same,YFP fluorescence quenching using AZD-0328 (percent quench),30 uM azd0328,78.63%
same,YFP fluorescence quenching using TC-6683 (percent quench),100 uM TC-6683,−9.77%
same,YFP fluorescence quenching (percent quench),100 uM ach (acetylcholine),10.19%
same,YFP fluorescence quenching (percent quench),1 mM ach (acetylcholine),77.34%
same,YFP fluorescence quenching (percent quench),3 mM ach (acetylcholine),77.79%
same,"YFP fluorescence quenching using Facinicline, 30 nM fac",ligand Facinicline 30 nM,12.67
same,"YFP fluorescence quenching using Facinicline, 300 nM fac",ligand Facinicline 300 nM,80.4
same,"YFP fluorescence quenching using Facinicline, 10 uM fac",ligand Facinicline 10 uM,82.18
same,"YFP fluorescence quenching using Facinicline, 30 uM fac",ligand Facinicline 30 uM,82.14
same,"YFP fluorescence quenching using TC-6987, 1 uM tc6987",ligand TC-6987 1 uM,50
same,"YFP fluorescence quenching using TC-6987, 3 uM tc6987",ligand TC-6987 3 uM,80.39
same,"YFP fluorescence quenching using TC-6987, 5 uM tc6987",ligand TC-6987 5 uM,79.93
same,"YFP fluorescence quenching using TC-6987, 10 uM tc6987",ligand TC-6987 10 uM,80.99
same,"YFP fluorescence quenching using TC-6987, 30 uM tc6987",ligand TC-6987 30 uM,83.11
same,"YFP fluorescence quenching using TC-6987, 50 uM tc6987",ligand TC-6987 50 uM,83.18
same,"YFP fluorescence quenching using TC-6987, 100 uM tc6987",ligand TC-6987 100 uM,82.16
same,"YFP fluorescence quenching using TC-6987, 300 uM tc6987",ligand TC-6987 300 uM,64.58
same,"YFP fluorescence quenching using TC-6987, 500 uM tc6987",ligand TC-6987 500 uM,76.77
same,"YFP fluorescence quenching using Varenicline, 3 nM var",first column,−0.902
same,"YFP fluorescence quenching using Varenicline, 3 nM var",second column,−7.62
same,"YFP fluorescence quenching using Varenicline, 30 nM var",first column,−6.009
same,"YFP fluorescence quenching using Varenicline, 30 nM var",second column,−3.447
same,"YFP fluorescence quenching using Varenicline, 300 nM var",first column,49.328
same,"YFP fluorescence quenching using Varenicline, 300 nM var",second column,47.685
same,"YFP fluorescence quenching using Varenicline, 500 nM var",first column,66.7
same,"YFP fluorescence quenching using Varenicline, 500 nM var",second column,64.798
same,"YFP fluorescence quenching using Varenicline, 1 uM var",first column,70.85
same,"YFP fluorescence quenching using Varenicline, 1 uM var",second column,69.038

# Source: patent US20250152742A1, “COMPOSITIONS AND METHODS FOR NEUROLOGICAL DISEASES” (Trames Bio, Inc., priority 2022, published 2025)
